From paper PMC3315801

Target: T1, CPY*-CPY fusion protein (S. cerevisiae) (UniProt P00729)
T1 sequence (P00729 whole entry, looked up): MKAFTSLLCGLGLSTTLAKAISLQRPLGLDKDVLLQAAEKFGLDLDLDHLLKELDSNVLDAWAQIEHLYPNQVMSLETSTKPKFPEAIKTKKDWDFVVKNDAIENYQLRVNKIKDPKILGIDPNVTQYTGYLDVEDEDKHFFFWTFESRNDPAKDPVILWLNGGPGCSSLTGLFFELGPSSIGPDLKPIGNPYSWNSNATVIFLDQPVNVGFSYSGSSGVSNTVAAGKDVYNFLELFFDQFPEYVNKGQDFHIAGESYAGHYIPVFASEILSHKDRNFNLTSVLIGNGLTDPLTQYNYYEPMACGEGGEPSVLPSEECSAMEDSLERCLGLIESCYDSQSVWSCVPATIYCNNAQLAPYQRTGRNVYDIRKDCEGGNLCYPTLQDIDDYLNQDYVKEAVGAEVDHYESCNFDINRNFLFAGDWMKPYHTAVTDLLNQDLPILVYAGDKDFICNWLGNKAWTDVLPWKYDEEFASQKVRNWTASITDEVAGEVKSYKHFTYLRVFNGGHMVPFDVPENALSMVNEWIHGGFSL
Assay: co-IP

- inhibition of the co-precipitation in yos9Δ cells against wild-type cells: 70%
B1: Hrd1p (enzyme)
chain: MVPENRRKQLAIFVVVTYLLTFYCVYSATKTSVSFLQVTLKLNEGFNLMVLSIFILLNSTLLWQLLTKLLFGELRLIEHEHIFERLPFTIINTLFMSSLFHERYFFTVAFFGLLLLYLKVFHWILKDRLEALLQSINDSTTMKTLIFSRFSFNLVLLAVVDYQIITRCISSIYTNQKSDIESTSLYLIQVMEFTMLLIDLLNLFLQTCLNFWEFYRSQQSLSNENNHIVHGDPTDENTVESDQSQPVLNDDDDDDDDDRQFTGLEGKFMYEKAIDVFTRFLKTALHLSMLIPFRMPMMLLKDVVWDILALYQSGTSLWKIWRNNKQLDDTLVTVTVEQLQNSANDDNICIICMDELIHSPNQQTWKNKNKKPKRLPCGHILHLSCLKNWMERSQTCPICRLPVFDEKGNVVQTTFTSNSDITTQTTVTDSTGIATDQQGFANEVDLLPTRTTSPDIRIVPTQNIDTLAMRTRSTSTPSPTWYTFPLHKTGDNSVGSSRSAYEFLITNSDEKENGIPVKLTIENHEVNSLHGDGGEQIAKKIVIPDKFIQHI
